Biological target: GST-His6x-CLIC5A (human, UniProt Q9NZA1-2 1-251, fluorescent label from the Monolith His-Tag Labeling Kit RED-tris-nitriloacetic acid)
Experiment: MST; 100 nM fluorescently labeled (RED-tris-NTA) GST-His6x-CLIC5A or GST-His6x, unlabeled ezrin_(482-586) from 412 μM to 12.6 nM in the labeling buffer; Monolith NT.115, ambient temperature, 40% MST power, 30% LED power
Conditions: both partners purified

GST-His6x-CLIC5A, sequence (Q9NZA1 other isoform, or with tags, fused parts or gaps): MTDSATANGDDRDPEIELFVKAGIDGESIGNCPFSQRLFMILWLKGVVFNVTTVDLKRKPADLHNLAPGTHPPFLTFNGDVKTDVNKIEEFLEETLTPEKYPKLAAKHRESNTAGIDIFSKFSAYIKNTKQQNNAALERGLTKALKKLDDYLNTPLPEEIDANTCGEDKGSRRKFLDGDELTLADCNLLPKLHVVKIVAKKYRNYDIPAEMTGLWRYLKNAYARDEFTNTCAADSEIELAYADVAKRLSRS

B1: ezrin_(482-586) (H549N/T567E) (domain or fragment, human, UniProt P15311 482-586, looked up)
chain: SYHVQESLQDEGAEPTGYSAELSSEGIRDDRNEEKRITEAEKNERVQRQLLTLSSELSQARDENKRTNNDIIHNENMRQGRDKYKELRQIRQGNTKQRIDEFEAL
notes: ezrin, human; Expression plasmid created by ATUM; not shown: PagP, N-terminal, cleaved
- Kd: 29 µM

Source: PMC12494564, “CLIC5A binds to and stabilizes the open and active conformation of ezrin” (The Journal of Biological Chemistry, 2025)
